{"source": "patent US20100249038A1", "about": "“ANTAGONISTS OF THE RECEPTOR FOR ADVANCED GLYCATION END-PRODUCTS (RAGE)” (Board of Regents, University of Texas System, priority 2007, published 2010)", "molecules": {"B1": {"name": "S100P: S100 family calcium-binding protein, RAGE ligand, added exogenously as purified protein (protein, UniProt P25815 1-95, looked up)", "Protein S100-P": "MTELETAMGMIIDVFSRYSGSEGSTQTLTKGELKVLMEKELPGFLQSGKDKDAVDKLLKDLDANGDAQVDFSEFIVFVAAITSACHKYFEKAGLK"}}, "key": {"[1]": {"tested_on": "NFκB activity stimulated by S100P in Panc-1 cells", "experiment": "NFκB luciferase reporter activity stimulated by S100P in Panc-1 cells", "assay_type": "cell-based", "details": "S100P 100 nM, peptide 1 μg/ml, 4 hours, FIG. 7B", "procedure": "(§1) The effect of these novel peptide antagonists was evaluated on NFκB activity stimulated by S100P in Panc-1 cells. Panc-1 cells stably expressing the NFκB luciferase reporter gene were treated with or without S100P (100 nM) and either peptides of SEQ ID NOs: 1, 2 or 3 (1 μg/ml) for 4 hours. NFκB activity was estimated using luciferase quantitation. Numbers represent means±SE of triplicate determinations. * vs S100P alone (p<0.05); # vs control (p<0.05). Furthermore, administration of peptide of SEQ ID NO: 1 but not SEQ ID NO: 3 inhibited basal NFκB activity in S100P expressing BxPC3 cell tumors when administered in vivo as shown in FIG. 8. BxPC3 cells stably expressing an NFκB luciferase reporter were transplanted to scid mice and tumors were allowed to form. Animals were then injected i.p. with either peptide of SEQ ID NO: 1 (FIG. 8A) or SEQ ID NO: 3 (FIG. 8B). Imaging of luciferase activity was performed before and 24 h after peptide delivery. […] Numbers represent means±SE of triplicate determinations. *=p<0.05 vs time 0."}, "[2]": {"tested_on": "NFκB activity in S100P expressing BxPC3 cell tumors", "experiment": "Basal NFκB luciferase activity in BxPC3 cell tumors in vivo after i.p. peptide", "details": "BxPC3 tumors in scid mice, 24 h after peptide delivery vs time 0, FIG. 8", "procedure": "as §1"}, "RAGE [3]": {"target": "T1, RAGE (Homo sapiens, UniProt Q15109)", "experiment": "ELISA-type assay of purified S100P binding to coated purified RAGE", "parameters": "Purified RAGE was coated into culture wells", "details": "peptides 50 μM; FIG. 7A; preliminary studies", "procedure": "The binding of purified S100P to RAGE was evaluated using an ELISA technique. Purified RAGE was coated into culture wells, S100P was allowed to bind in the presence and absence of the peptides (50 μM), the dishes were extensively washed, and bound S100P was detected with a specific antibody coupled to HRP."}, "[4]": {"target": "T2, RAGE (sRAGE, extracellular domain) (Homo sapiens, UniProt Q15109)", "T2 construct": "the extracellular domain of RAGE peptide (sRAGE) was coated onto the ELISA plate", "T2 sequence (Q15109 23-342 limits assumed)": "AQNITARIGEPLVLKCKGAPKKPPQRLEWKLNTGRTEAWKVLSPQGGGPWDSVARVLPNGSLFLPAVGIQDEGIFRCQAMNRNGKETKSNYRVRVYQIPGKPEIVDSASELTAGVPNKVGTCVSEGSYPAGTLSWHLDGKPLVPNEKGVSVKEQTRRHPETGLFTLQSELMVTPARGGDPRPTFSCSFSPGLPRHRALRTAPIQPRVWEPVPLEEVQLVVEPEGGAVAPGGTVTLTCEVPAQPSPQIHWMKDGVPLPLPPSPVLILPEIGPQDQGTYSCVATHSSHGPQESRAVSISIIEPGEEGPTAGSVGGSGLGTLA", "experiment": "ELISA of amphoterin (HMGB1) binding to coated sRAGE", "details": "amphoterin 0-100 ng; FIG. 9; p<0.05 versus HMGB1 alone", "source_text": "S100P peptide antagonists having the sequence Ac-ELKVLMEKEL-NH2 were made with standard L isomers of amino acids. This peptide antagonist comprises the amino acid sequence referred to as SEQ ID NO: 1 (ELKVLMEKEL), and in this instance the termini were blocked to prevent and/or reduce degradation. The inverse sequence, Ac-LEKEMLVKLE-NH2 was produced using D isomers of amino acids. This peptide antagonist comprises the amino acid sequence referred to as SEQ ID NO: 4 (LEKEMLVKLE), and in this instance the termini were blocked to prevent and/or reduce degradation. D isomers of amino acids, which are not naturally occurring, are thought to provide prolonged half-life in vivo. […] For this study, the extracellular domain of RAGE peptide (sRAGE) was coated onto the ELISA plate for 1 hour and non-specific binding sites were blocked with 1% BSA for 15 minutes. Amphoterin (0-100 ng) was added and incubated for 1 hour to allow its binding to its receptor and unbound molecules were removed by washing. Primary antibody against amphoterin and secondary antibody labeled with HRP and subsequently substrate for HRP was used to detect bound amphoterin with its receptor sRAGE. […] A control peptide of the same size had no effect. *=p<0.05 versus HMGB1 alone.\nInhibition of the binding of amphoterin to RAGE by antagonist peptides was tested using an in vitro ELISA based binding assay. […]"}, "[5]": {"target": "T2, RAGE (sRAGE, extracellular domain)", "experiment": "ELISA of S100P binding to coated sRAGE", "details": "FIG. 10"}, "[6]": {"target": "T2, RAGE (sRAGE, extracellular domain)", "experiment": "ELISA of S100A4 binding to coated sRAGE", "details": "FIG. 10"}, "[7]": {"tested_on": "S100P induced NFκB activity in pancreatic cancer MPanc-96 cells", "experiment": "S100P induced NFκB-Luc reporter activity in MPanc-96 cells", "assay_type": "cell-based", "details": "pre-treatment with peptide, FIG. 11", "source_text": "MPanc-96 pancreatic cancer cells were stably transfected with a reporter plasmid, NFκB-Luc reporter, that provides a quantifiable photon output based on NFκB transcriptional activity. Extracellular addition of S100P to the cells induced the NFκB activity, which has previously been proven to be mediated through interaction with RAGE. Pre-treatment of the cells with S100P peptide antagonists (L-peptide and D-peptide), block S100P binding with its receptor RAGE, thus blocking S100P induced NFκB activity. Results of this assay are depicted in FIG. 11."}, "[8]": {"tested_on": "NFκB activity in subcutaneous MPanc-96 tumors", "experiment": "NFκB-Luc activity in subcutaneous MPanc-96 tumors after intratumoral injection", "assay_type": "in vivo, nude mice", "details": "10 mg/kg b.wt intratumorally, measured after 4 hours; FIG. 12", "procedure": "S100P peptide antagonists (L-peptide and D-peptide) block NFκB activity in vivo in subcutaneous tumors. MPanc-96 pancreatic cancer cells stably transfected with the NFκB-Luc reporter were injected into nude mice subcutaneously (1×10^6) and in vivo NFκB activity indicated by luciferase was measured using an IVIS-100 bioluminescence system. S100P peptide antagonists (L-peptide and D-peptide) (10 mg/kg·b·wt) were injected intratumorally and NFκB activity was measured after 4 hours. […] Thus, delivery of peptide antagonists by direct injection in subcutaneous tumors inhibits NFκB as an indirect read-out of RAGE."}, "[9]": {"tested_on": "NFκB activity in orthotopic MPanc-96 tumor", "experiment": "NFκB-Luc activity in orthotopic MPanc-96 tumors after intraperitoneal injection", "assay_type": "in vivo", "details": "10 mg/kg b.wt intraperitoneally, measured after 4 hrs; p<0.05; FIG. 13", "procedure": "MPanc-96 pancreatic cancer cells stably transfected with the NFκB-Luc reporter were injected orthotopically into the pancreas (1×10^6), and NFκB activity indicated by luciferase activity was measured after two weeks. S100P peptide antagonists (L-peptide and D-peptide) (10 mg/kg·b·wt) were injected intraperitoneally and NFκB activity in the orthotopic tumor was measured after 4 hrs."}, "[10]": {"tested_on": "human umbilical vein endothelial cells (HUVECs)", "experiment": "HUVEC cell number after S100P treatment (MTS)", "assay_type": "cell-based", "details": "S100P treatment for 48 hrs vs uninduced bacterial protein; FIG. 4A", "procedure": "(§2) S100P is secreted by pancreatic cancer cells and acts in an autocrine manner to stimulate their growth, survival, and invasiveness. Thus, S100P could also interact with receptors on cells within the microenvironment. The effects of S100P on human umbilical vein endothelial cells (HUVECs) in vitro were examined. […] HUVEC cells were cultured in the presence of either S100P or uninduced bacterial protein for 48 hours and the number of cells was estimated using MTS. […] Tumors formed with BxPC3 cells were harvested and frozen sections were stained for CD31 staining with the help of the Cancer Biology Histology core. Microvessels bearing CD31 are stained brown. […] HUVEC cells were plated on Matrigel and followed for 4 hours. After this time, control cells mostly remained individually isolated while a few cells began to migrate and align themselves and occasional sprouting was observed. At 4 hrs, cells treated with S100P had mostly migrated aligned themselves, sprouted, formed closed polygons and a complex mesh like structure had developed."}, "[11]": {"tested_on": "human umbilical vein endothelial cells (HUVECs)", "experiment": "HUVEC migration and alignment on Matrigel", "assay_type": "cell-based", "details": "4 hours, FIG. 4C", "procedure": "as §2"}, "RAGE [12]": {"target": "T1, RAGE", "experiment": "Co-immunoprecipitation of RAGE with S100P from pancreatic cancer cell lysates", "assay_type": "binding", "parameters": "endogenous in cells; host or cells: MiaPaca2, BxPC3 (and Panc-1, printed 'Panel') cell lysates", "details": "S100P 100 ng, 16 hours at 4° C., FIG. 5", "procedure": "As a direct indication of this interaction, lysates from Panel, and MiaPaca2 cells were incubated with S100P and S100P was then immunoprecipitated. RAGE was not present in the samples run without addition of S100P or S100P antibody (lanes A-C), but RAGE was present when both these reagents were included (lanes D-F). […] In these experiments MiaPaca2 (A-D) and BxPC3-1 (E) cell lysates were incubated in the presence of S100P (100 ng) for 16 hours at 4° C. before immunoprecipitation with anti-S100P monoclonal antibodies (IP-S100P) (+) or control IgG (−) and RAGE was identified in the immunoprecipitates by western blotting with an anti-RAGE antibody (IB-RAGE)."}}, "note": "Non-standard residues stand in square brackets, D forms with d."}
{"molecule": "ELKVLMEKEL (listed as Homo sapiens) [SEQ ID NO: 1]", "values": [{"measurement": "block of the activation of NFκB by S100P", "setting": "[1]", "value": "could also block the activation of NFκB by S100P"}, {"measurement": "inhibition of basal NFκB activity in tumors in vivo", "setting": "[2]", "value": "caused a significant reduction in NFκB activity"}, {"measurement": "block of the interaction of S100P with RAGE", "setting": "RAGE [3]", "value": "could block the interaction of S100P with RAGE"}]}
{"molecule": "Ac-ELKVLMEKEL-NH2 (listed as Homo sapiens) [L-peptide]", "values": [{"measurement": "block of amphoterin (HMGB1) binding to RAGE", "setting": "[4]", "value": "competed with amphoterin and blocked its ability to bind with RAGE"}, {"measurement": "block of S100P binding to RAGE", "setting": "[5]", "value": "compete for binding of S100P"}, {"measurement": "block of S100A4 binding to RAGE", "setting": "[6]", "value": "blocked"}, {"measurement": "block of S100P induced NFκB activity", "setting": "[7]", "value": "block S100P induced NFκB activity"}, {"measurement": "reduction in NFκB activity in subcutaneous tumors", "setting": "[8]", "value": "strong reduction in NFκB activity"}, {"measurement": "inhibition of cancer cell NFκB activity in orthotopic tumor", "setting": "[9]", "value": "significant inhibition of cancer cell NFκB activity"}]}
{"molecule": "GKDGDAVDKLLKD (listed as Homo sapiens) [SEQ ID NO: 3, b142 prints …]", "values": [{"measurement": "block of the activation of NFκB by S100P", "setting": "[1]", "value": "could also block the activation of NFκB by S100P"}, {"measurement": "inhibition of basal NFκB activity in tumors in vivo", "setting": "[2]", "value": "did not"}, {"measurement": "block of the interaction of S100P with RAGE", "setting": "RAGE [3]", "value": "could block the interaction of S100P with RAGE"}]}
{"molecule": "Ac-LEKEMLVKLE-NH2 (Ac-[dL][dE][dK][dE][dM][dL][dV][dK][dL][dE]-NH2; SMILES CSCC[C@@H](NC(=O)[C@@H](CCC(=O)O)NC(=O)[C@@H](CCCCN)NC(=O)[C@@H](CCC(=O)O)NC(=O)[C@@H](CC(C)C)NC(C)=O)C(=O)N[C@H](CC(C)C)C(=O)N[C@@H](C(=O)N[C@H](CCCCN)C(=O)N[C@H](CC(C)C)C(=O)N[C@H](CCC(=O)O)C(N)=O)C(C)C; listed as Homo sapiens) [D-peptide]", "values": [{"measurement": "block of amphoterin (HMGB1) binding to RAGE", "setting": "[4]", "value": "competed with amphoterin and blocked its ability to bind with RAGE"}, {"measurement": "block of S100P binding to RAGE", "setting": "[5]", "value": "compete for binding of S100P"}, {"measurement": "block of S100A4 binding to RAGE", "setting": "[6]", "value": "blocked"}, {"measurement": "block of S100P induced NFκB activity", "setting": "[7]", "value": "block S100P induced NFκB activity"}, {"measurement": "reduction in NFκB activity in subcutaneous tumors", "setting": "[8]", "value": "strong reduction in NFκB activity"}, {"measurement": "inhibition of cancer cell NFκB activity in orthotopic tumor", "setting": "[9]", "value": "significant inhibition of cancer cell NFκB activity"}]}
{"molecule": "KELPGFLQSGKDKD (listed as Homo sapiens) [SEQ ID NO: 2]", "values": [{"measurement": "block of the activation of NFκB by S100P", "setting": "[1]", "value": "not"}, {"measurement": "block of the interaction of S100P with RAGE", "setting": "RAGE [3]", "value": "not"}]}
{"molecule": "B1", "values": [{"measurement": "HUVEC cell numbers", "setting": "[10]", "value": "significant increase in HUVEC cell numbers"}, {"measurement": "endothelial cell migration and alignment", "setting": "[11]", "value": "increased endothelial cell migration and alignment"}, {"measurement": "direct interaction with RAGE (RAGE in S100P immunoprecipitates)", "setting": "RAGE [12]", "value": "able to interact directly with RAGE"}]}
